The results in this text go back to PMC8096270.

The target in data set [1] is Full-length MMTV Gag polypeptide with a C-terminus hexa-histidine tag (Pr77^Gag-His6-tag protein) (mouse mammary tumor virus (MMTV)). Nature of the data set: dynamic light scattering; Pr77^Gag in storage buffer (50 mM Tris-HCl pH 8.0, 1 M NaCl), 20°C; mean hydrodynamic radius based on number distribution.
Data set [2] concerns Pr77Gag (Gag precursor polyprotein) (Mouse mammary tumor virus (strain not stated; HYB-MTV?)). As to the kind of experiment: EMSA. To be noted: competition, filter binding: 30 mM Tris pH 7.5, 300 mM NaCl, 5 mM MgCl2, DTT (10 mM in protein diluent), 0.01% Triton X-100, BSA, 37 C 30 min then ice …. In general terms: In EMSA bound probe runs differently from free probe, usually more slowly.

One may read the stoichiometry N as the number of molecules, sites or subunits per partner or assembly. By Kd is commonly meant the free concentration of one partner at which half of the binding sites on the other are occupied at equilibrium, for simple one-to-one binding. Read a high Kd as lower affinity.

As for “Full-length MMTV Gag polypeptide with a C-terminus hexa-histidine tag (Pr77^Gag-His6-tag protein) (natural protein)”, in data set [1], the stoichiometry N is 3.

With WT unspliced gRNA nt 1-712 (SA35), in data set [2], the Kd stood at 480 nM.
